Experimental data as given in patent US20070092518A1 (published 2007).
Substitutions are numbered along the chain they refer to.

B1: TNFα antibody C7 (full-length antibody) (antibody, V domains shown)
VH: EVQLVESGGGLVQPGGSLRLSCAASGFIFSNHWMNWVRQAPGKGLEWIGEIRSKSINSATHYAESVKGRFIISRDDNKNSLYLEMNSLKTEDTAEYYCARNYYGSTYDYWGQGTLVTVS
VL: EIVLTQSPDFQSVTPKEKVTITCRASQFVGSSIHWYQQKPDQSPKLLIKYASESMSGVPSRFSGSGSGTDFTFTISSLEAEDAATYYCQQSHSWPFTFGPGTKVDIK
notes: Variable regions subcloned into a mammalian construct with infliximab constant region (IgG1 kappa)
B2: SEQ ID NO 168 (Fab, V domains shown)
VH: B1 VH with V5T, G26Q, F27S, I28T, S58G, H61S, D76G, N79T, Y107P
VL: B1 VL
notes: Fab, E. coli lysate
B3: SEQ ID NO 71 (Fab, V domains shown)
VH: EVQLTESGGGLVQPGGSLRLSCRASGSTFSNHWMNWVRQAPGKGLEWIGEIRSKSIYGATSYAESVKGRFIISRDGNKTSLTLEMNSLKTEDTAEYYCARNYYGSTPDYWGQGTLVTVS
VL: B1 VL
notes: Fab, E. coli lysate
B4: SEQ ID NO 171 (Fab, V domains shown)
VH: B1 VH with G26Q, F27S, I28T, W33Y, N57Y, H61S, K78G, R100Q, Y107P
VL: B1 VL
notes: Fab, E. coli lysate
B5: SEQ ID NO 169 (Fab, V domains shown)
VH: B1 VH with V5T, W33Y, S58G, H61S, K78G, S80D, Y82T, R100Q, Y107P
VL: B1 VL
notes: Fab, E. coli lysate
B6: SEQ ID NO 181 (Fab, V domains shown)
VH: B1 VH with I28T, I56S, N57Y, Y82T, R100Q, Y107P
VL: B1 VL
notes: Fab, E. coli lysate
B7: SEQ ID NO 182 (Fab, V domains shown)
VH: B3 VH with R23A, S27F, W33Y, G58S, S61H, K78G, S80D, T82Y, R100Q
VL: B1 VL
notes: Fab, E. coli lysate
B8: SEQ ID NO 178 (Fab, V domains shown)
VH: B1 VH with I28T, W33Y, N57Y, D76G, K78G, Y82T, Y107P
VL: B1 VL
notes: Fab, E. coli lysate
B9: SEQ ID NO 172 (Fab, V domains shown)
VH: B3 VH with R23A, S27F, S61H, T79N, S80D, R100Q
VL: B1 VL
notes: Fab, E. coli lysate
B10: SEQ ID NO 186 (Fab, V domains shown)
VH: B3 VH with R23A, W33Y, G58S, G76D, K78G, T79N
VL: B1 VL
notes: Fab, E. coli lysate
B11: SEQ ID NO 175 (Fab, V domains shown)
VH: B1 VH with A23R, S58G, N79T, Y82T, R100Q
VL: B1 VL
notes: Fab, E. coli lysate
B12: SEQ ID NO 190 (Fab, V domains shown)
VH: B1 VH with A23R, H61S, D76G, N79T, S80D, Y82T
VL: B1 VL
notes: Fab, E. coli lysate
B13: SEQ ID NO 189 (Fab, V domains shown)
VH: B3 VH with R23A, G26Q, S27F, G58S, S61H, G76D, K78G
VL: B1 VL
notes: Fab, E. coli lysate
B14: SEQ ID NO 184 (Fab, V domains shown)
VH: B1 VH with G26Q, W33Y, D76G, K78G, N79T, S80D
VL: B1 VL
notes: Fab, E. coli lysate
B15: SEQ ID NO 177 (Fab, V domains shown)
VH: B3 VH with R23A, G26Q, W33Y, I56S, Y57N, G76D, T79N, S80D, R100Q, P107Y
VL: B1 VL
notes: Fab, E. coli lysate
B16: SEQ ID NO 188 (Fab, V domains shown)
VH: B1 VH with W33Y, N57Y, S58G, H61S, S80D, R100Q
VL: B1 VL
notes: Fab, E. coli lysate
B17: SEQ ID NO 179 (Fab, V domains shown)
VH: B3 VH with R23A, G26Q, S27F, I56S, Y57N, S61H, G76D, K78G
VL: B1 VL
notes: Fab, E. coli lysate
B18: SEQ ID NO 187 (Fab, V domains shown)
VH: B3 VH with R23A, S27F, W33Y, I56S, K78G, S80D, T82Y, R100Q, P107Y
VL: B1 VL
notes: Fab, E. coli lysate
B19: SEQ ID NO 170 (Fab, V domains shown)
VH: B1 VH with F27S, I28T, K78G, N79T, R100Q
VL: B1 VL
notes: Fab, E. coli lysate
B20: SEQ ID NO 174 (Fab, V domains shown)
VH: B3 VH with T5V, W33Y, I56S, G58S, G76D, S80D, R100Q
VL: B1 VL
notes: Fab, E. coli lysate
B21: SEQ ID NO 180 (Fab, V domains shown)
VH: B1 VH with A23R, W33Y, I56S, N79T, Y82T, R100Q, Y107P
VL: B1 VL
notes: Fab, E. coli lysate

Molecular target: T1, human tumor necrosis factor-α (rHuTNF-alpha, Biosource) (human, UniProt P01375 77-233)
T1 construct: Bought recombinant protein coated on ELISA plates; The TNFα of the Biacore assay is not described further; also called TNFα; human TNFα
Test: Biacore

T1 sequence (P01375 77-233 limits assumed): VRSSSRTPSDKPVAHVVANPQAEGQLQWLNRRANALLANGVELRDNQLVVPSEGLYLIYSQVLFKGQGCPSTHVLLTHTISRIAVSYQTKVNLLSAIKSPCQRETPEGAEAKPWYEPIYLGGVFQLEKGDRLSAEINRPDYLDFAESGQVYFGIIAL

Row | Binder | Kd [pM]
1 | B1 | 70

Molecular target: T1, human tumor necrosis factor-α …
Test: Biacore, against infliximab

Row | Binder | fold higher binding affinity than infliximab [fold]
2 | B1 | > 2

Molecular target: T1, human tumor necrosis factor-α …
Test: solid-phase ELISA, Fab lysate on coated rHuTNF-alpha
In short: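 E. coli lysates expressing His-tagged Fab (pTrcHis2A) were incubated 2 h at RT on wells coated with 1 μg/ml rHuTNF-α and blocked with BSA. Bound Fab was detected with biotinylated anti-human kappa plus penta-His conjugates, then streptavidin-POD and TMB. Absorbance was read at 450 nm.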

Row | Binder | binding result
3 | B2 | binds
4 | B3 | binds
5 | B4 | binds
6 | B5 | binds
7 | B6 | binds
8 | B7 | binds
9 | B8 | binds
10 | B9 | binds
11 | B10 | binds
12 | B11 | binds
13 | B12 | binds
14 | B13 | binds
15 | B14 | binds
16 | B15 | binds
17 | B16 | binds
18 | B17 | binds
19 | B18 | binds
20 | B19 | binds
21 | B20 | binds
22 | B21 | binds
